The values below come from patent US20130230532A1 (HONG KONG UNIVERSITY OF SCIENCE AND TECHNOLOGY, published 2013).

One experiment has as its target T1, AKAP450 (UniProt Q99996 1-3907, limits assumed).
T1 construct: Endogenous protein detected by immunoblot; also called AKAP350; CG-NAP
The experiment can be described thus: anti-FLAG co-immunoprecipitation from HEK293T, immunoblot. On the procedure: The immunoprecipitated proteins and inputs were analyzed by immunoblotting and quantified. […] Data shown are means±S.D. from three independent experiments. […] The arrow indicates a transfected cell. Boxed areas are enlarged. Scale bars, 5 μm.
(§1) Anti-FLAG immunoprecipitation was performed using anti-FLAG-coupled beads (M2, Sigma) in cell extracts prepared with a lysis buffer (20 mM Tris-HCl, pH7.4, 150 mM NaCl, 1 mM EDTA, 1% Triton X-100, 1 mM dithiothreitol, and the Protease Inhibitor Cocktail). Immunoprecipitated proteins were detected by immunoblotting.

The next experiment deals with T2, EB1 (UniProt Q15691 2-268).
T2 construct: Endogenous protein detected by immunoblot or mass spectrometry; also called endogenous EB1
T2 sequence (looked up): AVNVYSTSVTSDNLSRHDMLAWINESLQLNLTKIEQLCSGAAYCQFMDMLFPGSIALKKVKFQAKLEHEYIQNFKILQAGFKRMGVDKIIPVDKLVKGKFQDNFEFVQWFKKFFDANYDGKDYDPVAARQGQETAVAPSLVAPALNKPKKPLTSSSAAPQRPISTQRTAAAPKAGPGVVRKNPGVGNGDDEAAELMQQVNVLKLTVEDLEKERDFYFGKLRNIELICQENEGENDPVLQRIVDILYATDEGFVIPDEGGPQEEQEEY
The experiment can be described thus: anti-FLAG co-immunoprecipitation, immunoblot. Here is the method: (§2) After anti-FLAG immunoprecipitation, the immunoprecipitates and inputs were probed on immunoblots. […] Scale bars, 5 μm.
as §1

A further experiment deals with T3, GFP-EB3 (UniProt Q9UPY8 1-281).
T3 construct: not shown: GFP tag
T3 sequence (Q9UPY8 whole entry): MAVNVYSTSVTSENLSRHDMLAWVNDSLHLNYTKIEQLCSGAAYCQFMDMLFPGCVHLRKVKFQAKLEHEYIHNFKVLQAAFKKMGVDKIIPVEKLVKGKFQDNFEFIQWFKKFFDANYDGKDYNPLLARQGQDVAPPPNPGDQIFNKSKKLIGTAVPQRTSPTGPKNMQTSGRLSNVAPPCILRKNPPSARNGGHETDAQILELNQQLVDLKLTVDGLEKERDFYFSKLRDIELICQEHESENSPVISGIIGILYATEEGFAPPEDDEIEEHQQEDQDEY
Kind of experiment: anti-FLAG co-immunoprecipitation from HEK293T, anti-GFP immunoblot. Here is the method: as §2, §1
In general terms: Immunoblotting shows a protein as a band on a membrane.

T1 sequence (Q99996 whole entry): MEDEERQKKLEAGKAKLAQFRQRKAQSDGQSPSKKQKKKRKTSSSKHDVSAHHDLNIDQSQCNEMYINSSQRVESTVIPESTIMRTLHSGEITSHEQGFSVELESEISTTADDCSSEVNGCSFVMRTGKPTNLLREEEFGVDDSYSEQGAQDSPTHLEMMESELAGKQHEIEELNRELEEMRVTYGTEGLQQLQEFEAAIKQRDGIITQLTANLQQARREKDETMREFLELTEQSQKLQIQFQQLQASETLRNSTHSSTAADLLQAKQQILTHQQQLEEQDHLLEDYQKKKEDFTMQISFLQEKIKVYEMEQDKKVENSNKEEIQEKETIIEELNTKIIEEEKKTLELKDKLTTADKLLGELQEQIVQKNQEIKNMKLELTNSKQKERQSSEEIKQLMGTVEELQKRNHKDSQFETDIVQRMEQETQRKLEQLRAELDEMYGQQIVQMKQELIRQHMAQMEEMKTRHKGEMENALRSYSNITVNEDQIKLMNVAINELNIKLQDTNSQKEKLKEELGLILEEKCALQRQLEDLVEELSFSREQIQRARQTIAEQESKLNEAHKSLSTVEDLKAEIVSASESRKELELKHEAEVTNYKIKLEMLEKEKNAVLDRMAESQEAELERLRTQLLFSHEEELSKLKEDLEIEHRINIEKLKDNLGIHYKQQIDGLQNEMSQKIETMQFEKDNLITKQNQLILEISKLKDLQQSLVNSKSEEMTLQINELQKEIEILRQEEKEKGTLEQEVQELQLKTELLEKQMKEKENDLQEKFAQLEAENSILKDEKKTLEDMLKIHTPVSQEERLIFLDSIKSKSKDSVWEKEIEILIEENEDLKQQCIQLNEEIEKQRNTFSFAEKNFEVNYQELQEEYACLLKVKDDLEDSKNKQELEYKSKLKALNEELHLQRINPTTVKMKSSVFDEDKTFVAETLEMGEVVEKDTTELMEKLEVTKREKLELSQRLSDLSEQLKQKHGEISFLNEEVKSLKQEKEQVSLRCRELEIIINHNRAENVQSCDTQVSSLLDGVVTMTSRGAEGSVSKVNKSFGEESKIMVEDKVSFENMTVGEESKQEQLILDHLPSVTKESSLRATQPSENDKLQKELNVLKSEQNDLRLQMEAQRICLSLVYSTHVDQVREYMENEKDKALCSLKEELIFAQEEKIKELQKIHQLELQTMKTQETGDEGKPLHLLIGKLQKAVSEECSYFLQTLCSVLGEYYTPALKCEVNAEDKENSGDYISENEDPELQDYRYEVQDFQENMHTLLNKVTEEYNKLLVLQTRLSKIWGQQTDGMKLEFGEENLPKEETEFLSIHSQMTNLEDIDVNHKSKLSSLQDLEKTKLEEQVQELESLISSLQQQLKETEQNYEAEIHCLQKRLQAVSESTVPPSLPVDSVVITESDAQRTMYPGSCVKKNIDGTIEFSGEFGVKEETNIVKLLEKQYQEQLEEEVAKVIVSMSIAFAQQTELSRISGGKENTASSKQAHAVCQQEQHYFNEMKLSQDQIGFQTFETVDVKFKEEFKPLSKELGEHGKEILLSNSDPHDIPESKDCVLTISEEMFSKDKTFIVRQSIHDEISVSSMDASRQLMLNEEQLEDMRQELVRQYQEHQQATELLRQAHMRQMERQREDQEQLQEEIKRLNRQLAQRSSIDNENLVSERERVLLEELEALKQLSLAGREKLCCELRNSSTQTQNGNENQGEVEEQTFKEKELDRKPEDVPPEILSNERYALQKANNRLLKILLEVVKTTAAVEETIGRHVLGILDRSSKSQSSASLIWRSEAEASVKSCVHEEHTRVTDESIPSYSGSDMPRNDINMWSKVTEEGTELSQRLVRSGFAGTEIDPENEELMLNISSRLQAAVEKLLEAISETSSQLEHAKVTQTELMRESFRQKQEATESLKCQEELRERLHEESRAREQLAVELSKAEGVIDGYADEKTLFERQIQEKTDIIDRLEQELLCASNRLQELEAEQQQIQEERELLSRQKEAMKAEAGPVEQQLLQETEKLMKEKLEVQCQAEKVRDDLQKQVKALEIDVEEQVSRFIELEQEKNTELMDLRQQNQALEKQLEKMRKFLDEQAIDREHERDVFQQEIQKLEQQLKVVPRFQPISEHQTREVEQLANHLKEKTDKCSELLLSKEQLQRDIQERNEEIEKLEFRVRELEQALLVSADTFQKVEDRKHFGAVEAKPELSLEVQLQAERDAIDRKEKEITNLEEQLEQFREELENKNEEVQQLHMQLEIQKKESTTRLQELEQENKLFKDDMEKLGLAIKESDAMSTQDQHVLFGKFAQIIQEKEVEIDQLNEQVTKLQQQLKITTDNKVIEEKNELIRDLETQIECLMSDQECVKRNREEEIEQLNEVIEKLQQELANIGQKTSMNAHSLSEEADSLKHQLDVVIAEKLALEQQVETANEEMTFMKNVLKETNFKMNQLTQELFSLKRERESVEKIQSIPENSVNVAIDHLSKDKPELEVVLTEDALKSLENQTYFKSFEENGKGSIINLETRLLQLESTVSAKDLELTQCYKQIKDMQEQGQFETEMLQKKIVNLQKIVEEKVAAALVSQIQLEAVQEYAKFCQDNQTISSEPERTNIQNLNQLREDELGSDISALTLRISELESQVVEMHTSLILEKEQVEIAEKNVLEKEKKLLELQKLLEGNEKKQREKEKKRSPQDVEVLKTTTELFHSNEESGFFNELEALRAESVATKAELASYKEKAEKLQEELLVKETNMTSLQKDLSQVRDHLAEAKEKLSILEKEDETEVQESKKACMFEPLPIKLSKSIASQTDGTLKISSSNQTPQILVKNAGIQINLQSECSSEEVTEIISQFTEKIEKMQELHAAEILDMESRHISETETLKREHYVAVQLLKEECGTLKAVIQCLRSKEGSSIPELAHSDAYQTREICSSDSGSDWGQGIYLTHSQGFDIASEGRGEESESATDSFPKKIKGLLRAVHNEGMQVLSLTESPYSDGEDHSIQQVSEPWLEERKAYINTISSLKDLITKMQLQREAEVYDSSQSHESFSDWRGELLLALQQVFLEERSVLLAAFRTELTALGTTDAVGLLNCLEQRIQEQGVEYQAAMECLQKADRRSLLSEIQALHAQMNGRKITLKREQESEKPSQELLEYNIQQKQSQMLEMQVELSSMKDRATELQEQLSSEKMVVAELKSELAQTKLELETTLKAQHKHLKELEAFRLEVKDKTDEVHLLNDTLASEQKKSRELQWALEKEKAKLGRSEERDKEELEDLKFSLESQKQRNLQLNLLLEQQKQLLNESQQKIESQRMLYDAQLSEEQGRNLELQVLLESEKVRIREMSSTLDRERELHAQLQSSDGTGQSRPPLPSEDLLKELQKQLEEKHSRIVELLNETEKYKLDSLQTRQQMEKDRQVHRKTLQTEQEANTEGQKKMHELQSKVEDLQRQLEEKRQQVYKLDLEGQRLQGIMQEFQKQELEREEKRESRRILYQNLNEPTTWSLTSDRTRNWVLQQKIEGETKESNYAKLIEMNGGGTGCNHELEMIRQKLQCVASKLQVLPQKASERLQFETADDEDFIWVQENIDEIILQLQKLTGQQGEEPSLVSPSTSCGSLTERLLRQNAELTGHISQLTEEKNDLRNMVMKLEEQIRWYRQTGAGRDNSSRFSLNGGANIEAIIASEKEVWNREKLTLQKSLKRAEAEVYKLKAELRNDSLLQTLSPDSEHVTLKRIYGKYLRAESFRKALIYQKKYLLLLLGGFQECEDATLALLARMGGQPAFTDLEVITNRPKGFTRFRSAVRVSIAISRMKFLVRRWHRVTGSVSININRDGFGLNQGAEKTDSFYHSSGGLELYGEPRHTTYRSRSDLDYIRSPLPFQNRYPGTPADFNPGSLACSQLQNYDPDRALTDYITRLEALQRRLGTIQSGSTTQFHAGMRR

B1: FLAG-tagged MMG8 fragment 390-1116 (other)
chain: HETTITQQSVSDSHLAELQEKIQQTEATNKILQEKLNEMSYELKCAQESSQKQDGTIQNLKETLKSRERETEELYQVIEGQNDTMAKLREMLHQSQLGQLHSSEGTSPAQQQVALLDLQSALFCSQLEIQKLQRVVRQKERQLADAKQCVQFVEAAAHESEQQKEASWKHNQELRKALQQLQEELQNKSQQLRAWEAEKYNEIRTQEQNIQHLNHSLSHKEQLLQEFRELLQYRDNSDKTLEANEMLLEKLRQRIHDKAVALERAIDEKFSALEEKEKELRQLRLAVRERDHDLERLRDVLSSNEATMQSMESLLRAKGLEVEQLSTTCQNLQWLKEEMETKFSRWQKEQESIIQQLQTSLHDRNKEVEDLSATLLCKLGPGQSEIAEELCQRLQRKERMLQDLLSDRNKQVLEHEMEIQGLLQSVSTREQESQAAAEKLVQALMERNSELQALRQYLGGRDSLMSQAPISNQQAEVTPTGRLGKQTDQGSMQIPSRDDSTSLTAKEDVSIPRSTLGDLDTVAGLEKELSNAKEELELMAKKERESQMELSALQSMMAVQEEELQVQAADMESLTRNIQIKEDLIKDLQMQLVDPEDIPAMERLTQEVLLLREKVASVESQGQEISGNRRQQLLLMLEGLVDERSRLNEALQAERQLYSSLVKFHAHPESSERDRTLQVELEGAQVLRSRLEEVLGRSLERLNRLETLAAIGGGELESVRIHHKHAY
notes: not shown: FLAG tag
Turning to B1, in the experiment with AKAP450, the binding result was “no binding”.

B2: FLAG-tagged MMG8 fragment 1-389 (L311A/P312A) (other)
chain: MKEICRICARELCGNQRRWIFHTASKLNLQVLLSHVLGKDVPRDGKAEFACSKCAFMLDRIYRFDTVIARIEALSIERLQKLLLEKDRLKFCIASMYRKNNDDSGAEIKAGNGTVDMSVLPDARYSALLQEDFAYSGFECWVENEDQIQEPHSCHGSEGPGNRPRRCRGCAALRVADSDYEAICKVPRKVARSISCGPSSRWSTSICTEEPALSEVGPPDLASTKVPPDGESMEEETPGSSVESLDASVQASPPQQKDEETERSAKELGKCDCCSDDQAPQHGCNHKLELALSMIKGLDYKPIQSPRGSRAAIPVKSSLPGAKPGPSMTDGVSSGFLNRSLKPLYKTPVSYPLELSDLQELWDDLCEDYLPLRVQPMTEELLKQQKLNS
notes: not shown: FLAG tag
Turning to B2, the binding result in the experiment with EB1 is reported as “no binding”.

B3: FLAG-tagged full-length MMG8(L311A/P312A) (other)
chain: MKEICRICARELCGNQRRWIFHTASKLNLQVLLSHVLGKDVPRDGKAEFACSKCAFMLDRIYRFDTVIARIEALSIERLQKLLLEKDRLKFCIASMYRKNNDDSGAEIKAGNGTVDMSVLPDARYSALLQEDFAYSGFECWVENEDQIQEPHSCHGSEGPGNRPRRCRGCAALRVADSDYEAICKVPRKVARSISCGPSSRWSTSICTEEPALSEVGPPDLASTKVPPDGESMEEETPGSSVESLDASVQASPPQQKDEETERSAKELGKCDCCSDDQAPQHGCNHKLELALSMIKGLDYKPIQSPRGSRAAIPVKSSLPGAKPGPSMTDGVSSGFLNRSLKPLYKTPVSYPLELSDLQELWDDLCEDYLPLRVQPMTEELLKQQKLNSHETTITQQSVSDSHLAELQEKIQQTEATNKILQEKLNEMSYELKCAQESSQKQDGTIQNLKETLKSRERETEELYQVIEGQNDTMAKLREMLHQSQLGQLHSSEGTSPAQQQVALLDLQSALFCSQLEIQKLQRVVRQKERQLADAKQCVQFVEAAAHESEQQKEASWKHNQELRKALQQLQEELQNKSQQLRAWEAEKYNEIRTQEQNIQHLNHSLSHKEQLLQEFRELLQYRDNSDKTLEANEMLLEKLRQRIHDKAVALERAIDEKFSALEEKEKELRQLRLAVRERDHDLERLRDVLSSNEATMQSMESLLRAKGLEVEQLSTTCQNLQWLKEEMETKFSRWQKEQESIIQQLQTSLHDRNKEVEDLSATLLCKLGPGQSEIAEELCQRLQRKERMLQDLLSDRNKQVLEHEMEIQGLLQSVSTREQESQAAAEKLVQALMERNSELQALRQYLGGRDSLMSQAPISNQQAEVTPTGRLGKQTDQGSMQIPSRDDSTSLTAKEDVSIPRSTLGDLDTVAGLEKELSNAKEELELMAKKERESQMELSALQSMMAVQEEELQVQAADMESLTRNIQIKEDLIKDLQMQLVDPEDIPAMERLTQEVLLLREKVASVESQGQEISGNRRQQLLLMLEGLVDERSRLNEALQAERQLYSSLVKFHAHPESSERDRTLQVELEGAQVLRSRLEEVLGRSLERLNRLETLAAIGGGELESVRIHHKHAY
notes: also called L311A/P312A mutant; not shown: FLAG tag
Regarding B3, the binding result with EB1 and in the experiment with GFP-EB3 was “no binding” throughout.
